Source: publication PMC6128908, “Potent PDZ-Domain PICK1 Inhibitors that Modulate Amyloid Beta-Mediated Synaptic Dysfunction” (Scientific Reports, 2018)
Blank lines part the entries; values can stand above or below the binder they belong to. Where no end group is shown, it is not given here.

Assays:
[1] = molecular target: T1, His-MBP PICK1 construct (amino acids 1–356) (UniProt Q9NRD5 1-356); assay: FRET or BRET; high throughput screen with a FRET-based readout: His-MBP PICK1 (1–356) and FITC-labelled 9 amino acid GluA2 C-terminal peptide; compounds at 50 μM; settings: both partners purified
T1 construct: it is used here for both assays; Details of the construct are in Supplemental Methods; also called truncated, dimeric form of PICK1 lacking the last 59 residues; source: baculovirus expression, purified (Nickel chromatography, size exclusion chromatography)

[2] = molecular target: T2, PSD95 protein (domains 1–2 in tandem; aminoacids 61–249) (UniProt P78352 61-249); assay: fluorescence polarisation; competition FP: FITC-labeled peptides fixed at 5 nM, non-saturating protein concentrations (PICK1 600 nM; PSD95 PDZ 1–2 8 µM; Shank3 8 µM), unlabeled peptides or compound varied; normalised to binding and tracer-only controls; settings: both partners purified
T2 construct: PSD95 (postsynaptic density 95), PDZ domains 1-2 in tandem, amino acids 61-249; also called postsynaptic density 95 (PSD95) PDZ 1–2; source: E. coli, purified
T2 sequence (P78352 61-249): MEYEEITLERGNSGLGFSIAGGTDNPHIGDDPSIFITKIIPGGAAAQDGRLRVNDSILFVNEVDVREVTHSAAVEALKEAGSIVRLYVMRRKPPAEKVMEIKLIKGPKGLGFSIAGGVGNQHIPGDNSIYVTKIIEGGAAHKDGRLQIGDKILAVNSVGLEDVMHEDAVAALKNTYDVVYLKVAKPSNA

T1 sequence (Q9NRD5 1-356): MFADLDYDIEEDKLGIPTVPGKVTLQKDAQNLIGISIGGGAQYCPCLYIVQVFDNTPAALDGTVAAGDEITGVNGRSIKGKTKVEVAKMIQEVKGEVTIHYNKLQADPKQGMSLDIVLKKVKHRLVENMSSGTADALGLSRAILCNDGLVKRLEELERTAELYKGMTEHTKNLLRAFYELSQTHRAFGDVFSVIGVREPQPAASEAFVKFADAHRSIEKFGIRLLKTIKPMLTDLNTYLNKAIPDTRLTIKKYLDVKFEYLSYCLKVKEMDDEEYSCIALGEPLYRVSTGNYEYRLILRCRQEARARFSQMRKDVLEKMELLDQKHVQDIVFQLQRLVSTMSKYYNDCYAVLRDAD

binding result [1]: binds
B1: FITC-labeled 9 amino acid C-terminal peptide of GluA2 (875–883) (peptide, UniProt P42262 875-883, looked up)
peptide: VYGIESVKI
modifications: also: FITC label, position not given here
notes: AMPA receptor subunit GluA2, C-terminal 9 amino acids, residues 875-883; also called GluA2 peptide; Fluorescein isothiocyanate-labeled peptide comprising the C-terminal amino acids of GluA2

binding result [2]: binds
B2: FITC-labeled GluN2B peptide (N-methyl-D-aspartate receptor subunit 2B, 1474–1482) (peptide)
peptide: KLSSIESDV
modifications: also: FITC label, position not given here
notes: N-methyl-D-aspartate receptor subunit 2B (GluN2B), C-terminal amino acids 1474-1482
